Earlier results, collected in publication PMC11054419.

What was measured:
TGF-β2 (Homo sapiens) = TGF-β2 (Homo sapiens) (UniProt P61812)
TGF-β3 (Homo sapiens) = TGF-β3 (Homo sapiens) (UniProt P10600)
TGF-β1 (Homo sapiens) = TGF-β1 (Homo sapiens) (UniProt P01137)

Measured: Kd

Sequence of TβRIII (betaglycan) (Q03167 21-787): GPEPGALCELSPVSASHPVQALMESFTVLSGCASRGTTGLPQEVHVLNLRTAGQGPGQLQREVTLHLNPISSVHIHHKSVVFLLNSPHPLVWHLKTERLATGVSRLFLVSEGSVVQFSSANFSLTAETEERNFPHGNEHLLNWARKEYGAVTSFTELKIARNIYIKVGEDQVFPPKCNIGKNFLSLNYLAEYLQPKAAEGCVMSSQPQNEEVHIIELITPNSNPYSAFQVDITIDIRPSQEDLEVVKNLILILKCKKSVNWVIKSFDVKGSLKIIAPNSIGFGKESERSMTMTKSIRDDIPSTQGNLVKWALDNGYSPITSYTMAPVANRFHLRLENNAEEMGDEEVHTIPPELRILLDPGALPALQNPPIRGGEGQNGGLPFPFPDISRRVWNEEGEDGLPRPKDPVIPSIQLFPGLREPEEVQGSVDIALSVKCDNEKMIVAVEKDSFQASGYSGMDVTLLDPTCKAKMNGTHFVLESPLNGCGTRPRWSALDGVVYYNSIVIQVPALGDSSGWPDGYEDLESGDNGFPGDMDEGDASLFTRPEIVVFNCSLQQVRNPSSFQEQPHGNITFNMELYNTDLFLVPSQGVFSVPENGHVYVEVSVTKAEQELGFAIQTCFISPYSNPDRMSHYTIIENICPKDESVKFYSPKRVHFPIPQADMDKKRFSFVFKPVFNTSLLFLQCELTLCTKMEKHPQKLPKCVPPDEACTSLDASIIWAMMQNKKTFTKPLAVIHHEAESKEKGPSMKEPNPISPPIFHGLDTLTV
Sequence of TGF-β3 (Homo sapiens) (P10600 301-412): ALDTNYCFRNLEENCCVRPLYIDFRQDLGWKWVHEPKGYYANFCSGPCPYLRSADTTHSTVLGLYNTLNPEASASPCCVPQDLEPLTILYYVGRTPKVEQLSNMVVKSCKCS
Sequence of TGF-β2 (Homo sapiens) (P61812 303-414): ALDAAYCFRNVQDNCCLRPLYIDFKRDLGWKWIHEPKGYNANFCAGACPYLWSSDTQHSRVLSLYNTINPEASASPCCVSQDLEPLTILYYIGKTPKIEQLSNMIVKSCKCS
Sequence of TGF-β1 (Homo sapiens) (P01137 279-390): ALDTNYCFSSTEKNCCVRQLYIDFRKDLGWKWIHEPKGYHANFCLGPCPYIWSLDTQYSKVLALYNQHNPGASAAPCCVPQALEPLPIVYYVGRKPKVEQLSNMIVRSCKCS

TβRIII (betaglycan) (from UniProt Q03167)
100 pM: TGF-β2 (Homo sapiens) | TGF-β3 (Homo sapiens) | TGF-β1 (Homo sapiens)
